tested on: Immunoglobulin G (total IgG); assay: pulldown; conditions: P = 2NapdU; SB18, 37C, bead partitioning

Sequence | Kd [nM]
AGACTGCGGTTACCTTGTAGGCGATTATGGGCAG [5334-8_11] | 4.69
GCACTCCACATCCAAGACTGCGGTTACCTTGTAGGCGATTATGGGCAG [5334-8_4] | 17.3
CGGCACTCCACATCCAAGACTGCGGTTACCTTGTAGGCGATTATGGGC [5334-8_12] | 25.8
CGGCACTCCACATCCAAGACTGCGGTTACCTTGT [5334-8_19] | > 1000
GGTTACCTTGTAGGCGATTATGGGCAG [5334-8_27] | 279
CGGTTACCTTGTAGGCGATTATGGGCAG [5334-8_26] | > 1000
CGGCACTCCACATCCAAGACTGCGGTTACCTTGTAGGCGATTATGG [5334-8_13] | > 1000
GCGGTTACCTTGTAGGCGATTATGGGCAG [5334-8_25] | 5.83
TCCACATCCAAGACTGCGGTTACCTTGTAGGCGATTATGGGCAG [5334-8_6] | 7.89
AGACTGCGGTTACCTTGTAGGCGATTATGGGC [5334-8_29] | 15.6
CGGCACTCCACATCCAAGACTGCGGTTACCTTGTAGGCGATT [5334-8_15] | > 1000
CTGCGGTTACCTTGTAGGCGATTATGGGCAG [5334-8_23] | 4.04
AGACTGCGGTTACCTTGTAGGCGATTATGG [5334-8_31] | > 1000
AGACTGCGGTTACCTTGTAGGCGATTATGGG [5334-8_30] | 80.9

same assay, conditions: P = NapdU; SB18, 37C, bead partitioning

Sequence | Kd [nM]
GGCGAACTCCCTGAATGCTCTTGTCTTAA [14125-144_23] | > 1000
GTACGATTTTCAGTTGGATCCAGTAC [5406-56_49] | 17.6
GAACTCCCTGAATGCTCTTGTCTTAAGTCCCCAACA [14125-144_10] | > 1000
GATTTTCAGTTGGATCCAGTACCTGGCTGGAGAGAA [5406-56_10] | > 1000
ACGATTTTCAGTTGGATCCAGTACCTGGCTGGAGAGAA [5406-56_9] | > 1000
GCGAACTCCCTGAATGCTCTTGTCTTAAGTCCCCAACA [14125-144_9] | > 1000
GGCGAACTCCCTGAATGCTCTTGTCTT [14125-144_31] | > 1000
TTTTCAGTTGGATCCAGTACCTGGCTGGAGAGAA [5406-56_11] | > 1000
TGGCGAACTCCCTGAATGCTCTTGTC [14125-144_38] | > 1000
GTACGATTTTCAGTTGGATCCAGTACCTGGCTGGAGAGAA [5406-56_8] | 78.1
CCTCCATACGGTACGATTTTCAGTTGGATCCAGTAC [5406-56_18] | 42.2
CGGTACGATTTTCAGTTGGATCCAGTACCTGGCTGGAGAGAA [5406-56_7] | 13
GCCTGCACGATGGCGAACTCCCTGAATGCTCTTGTC [14125-144_18] | > 1000
TACGATTTTCAGTTGGATCCAGTACCTG [5406-56_32] | 75.4
TACGATTTTCAGTTGGATCCAGTACCTGG [5406-56_26] | 64.3
CCTCCATACGGTACGATTTTCAGTTGGATCCAGTACCTGGCT [5406-56_15] | 4.64
CATACGGTACGATTTTCAGTTGGATCCAGTACCTGGCTGGAGAGAA [5406-56_5] | 7.91
GGCGAACTCCCTGAATGCTCTTGTCTTA [14125-144_27] | > 1000
CCTCCATACGGTACGATTTTCAGTTGGATCCAGTACCTGGCTGG [5406-56_14] | 3

Sequence | Kd [nM]
CCTCCATACGGTACGATTTTCAGTTGGATCCAGTACCTGGCTGGAGAG [5406-56_12] | 2.88
GTACGATTTTCAGTTGGATCCAGTACCT [5406-56_37] | 9.44
CCTCCATACGGTACGATTTTCAGTTGGATCCAGT [5406-56_19] | > 1000
TGGCGAACTCCCTGAATGCTCTTGTCTTAAGTCCCCAACA [14125-144_8] | 6.82
CCTCCATACGGTACGATTTTCAGTTGGATCCAGTACCTGGCTGGAG [5406-56_13] | 2.61
TACGGTACGATTTTCAGTTGGATCCAGTACCTGGCTGGAGAGAA [5406-56_6] | 9.05
GTACGATTTTCAGTTGGATCCAGTACCTG [5406-56_31] | 14.8
TGGCGAACTCCCTGAATGCTCTTGTCTTAA [14125-144_22] | 3.55
TACGATTTTCAGTTGGATCCAGTACC [5406-56_44] | 36.2
TACGATTTTCAGTTGGATCCAGTACCT [5406-56_38] | > 1000
CCTCCATACGGTACGATTTTCAGTTGGATCCAGTACCT [5406-56_17] | 4.14
TGGCGAACTCCCTGAATGCTCTTGTCTTA [14125-144_26] | 5.03
CCTCCATACGGTACGATTTTCAGTTGGATCCAGTACCTGG [5406-56_16] | 2.58
CGGTACGATTTTCAGTTGGATCCAGTACC [5406-56_41] | 2.74
GCCTGCACGATGGCGAACTCCCTGAATGCTCTTGTCTTAAGT [14125-144_15] | 14.6
TCCATACGGTACGATTTTCAGTTGGATCCAGTACCTGGCTGGAGAGAA [5406-56_4] | 3.11
ACGATGGCGAACTCCCTGAATGCTCTTGTCTTAAGTCCCCAACA [14125-144_6] | 7.49
TGGCGAACTCCCTGAATGCTCTTGTCT [14125-144_34] | > 1000
GCCTGCACGATGGCGAACTCCCTGAATGCTCTTGTCTT [14125-144_17] | 15.4

same assay, conditions: P = NapdU; SB18, 37C; 25-mer core

Sequence | Kd [nM]
TACGATTTTCAGTTGGATCCAGTAC [5406-56_50] | 18.8

same assay, conditions: P = NapdU; SB18, 37C; table prints a shorter sequence than the listing for SEQ 18

Sequence | Kd [nM]
TACGGTACGATTTTCAGTTGGATCCAGTACCTGG [5406-56_21] | 8.13

tested on: Immunoglobulin G (total IgG) (Homo sapiens); assay: filter; conditions: n (P) = 2NapdU; SB18, 5 mM MgCl2, 37 C

Sequence | Kd [nM]
CAAGACTGCGGTTACCTTGTAGGCGATTATGGGCAG [5334-8_10] | 5.38
TCCAAGACTGCGGTTACCTTGTAGGCGATTATGGGCAG [5334-8_9] | 8.38
TGCGGTTACCTTGTAGGCGATTATGGGCAG [5334-8_24] | 5.51
GACTGCGGTTACCTTGTAGGCGATTATGGGCAG [5334-8_21] | 6.77
CACATCCAAGACTGCGGTTACCTTGTAGGCGATTATGGGCAG [5334-8_7] | 5.89
ACTGCGGTTACCTTGTAGGCGATTATGGGCAG [5334-8_22] | 5.77
ACTCCACATCCAAGACTGCGGTTACCTTGTAGGCGATTATGGGCAG [5334-8_5] | 5.92

same assay, conditions: n (P) = 2NapdU; considered no binding

Sequence | Kd [nM]
CGGCACTCCACATCCAAGACTGCGGTTACCTTGTAGGCGATTAT [5334-8_14] | > 1000
AGACTGCGGTTACCTTGTAGGCGATT [5334-8_33] | > 1000
CGGCACTCCACATCCAAGACTGCGGTTACCTTGTAGGC [5334-8_17] | > 1000
CGGCACTCCACATCCAAGACTGCGGTTACCTTGTAG [5334-8_18] | > 1000
AGACTGCGGTTACCTTGTAGGCGATTAT [5334-8_32] | > 1000

same assay, conditions: n (P) = NapdU; SB18, 5 mM MgCl2, 37 C

Sequence | Kd [nM]
GCCTGCACGATGGCGAACTCCCTGAATGCTCTTGTCTTAAGTCC [14125-144_14] | 15.8
GTACGATTTTCAGTTGGATCCAGTACC [5406-56_43] | 11
CTGCACGATGGCGAACTCCCTGAATGCTCTTGTCTTAAGTCCCCAACA [14125-144_4] | 10.5
CGGTACGATTTTCAGTTGGATCCAGTACCTG [5406-56_29] | 3.49
GATGGCGAACTCCCTGAATGCTCTTGTCTTAA [14125-144_20] | 6.67
TACGGTACGATTTTCAGTTGGATCCAGTACC [5406-56_39] | 6.74
GGTACGATTTTCAGTTGGATCCAGTACCT [5406-56_36] | 3.44
GGTACGATTTTCAGTTGGATCCAGTACC [5406-56_42] | 4.97
GATGGCGAACTCCCTGAATGCTCTTGTCTTA [14125-144_24] | 9.89
GCCTGCACGATGGCGAACTCCCTGAATGCTCTTGTCTTAAGTCCCCAA [14125-144_12] | 17.2
CGGTACGATTTTCAGTTGGATCCAGTAC [5406-56_47] | 5.7
GATGGCGAACTCCCTGAATGCTCTTGTCTT [14125-144_28] | 17.2
GATGGCGAACTCCCTGAATGCTCTTGTCTTAAGTCCCCAACA [14125-144_7] | 6.96
ATGGCGAACTCCCTGAATGCTCTTGTCTTAA [14125-144_21] | 5.5
GGTACGATTTTCAGTTGGATCCAGTACCTG [5406-56_30] | 3.22
GCCTGCACGATGGCGAACTCCCTGAATGCTCTTGTCTTAAGTCCCC [14125-144_13] | 14.3
ATGGCGAACTCCCTGAATGCTCTTGTCTT [14125-144_29] | 11.6
GCACGATGGCGAACTCCCTGAATGCTCTTGTCTTAAGTCCCCAACA [14125-144_5] | 8.87
TACGGTACGATTTTCAGTTGGATCCAGTACCTG [5406-56_27] | 5.56
CGGTACGATTTTCAGTTGGATCCAGTACCT [5406-56_35] | 3.42
ACGGTACGATTTTCAGTTGGATCCAGTAC [5406-56_46] | 8.14
ACGGTACGATTTTCAGTTGGATCCAGTACCT [5406-56_34] | 3.36
TACGGTACGATTTTCAGTTGGATCCAGTAC [5406-56_45] | 21.8
ACGGTACGATTTTCAGTTGGATCCAGTACCTG [5406-56_28] | 3.64
GCCTGCACGATGGCGAACTCCCTGAATGCTCTTGTCTTAA [14125-144_16] | 8.82

same assay, conditions: n (P) = NapdU; SB18, 5 mM MgCl2, 37 C; sequence identical to _21 to _25

Sequence | Kd [nM]
GTACGATTTTCAGTTGGATCCAGTACCTGG [5406-56_25] | 21.9
GGTACGATTTTCAGTTGGATCCAGTACCTGG [5406-56_24] | 5.1
CGGTACGATTTTCAGTTGGATCCAGTACCTGG [5406-56_23] | 5.48

same assay, conditions: n (P) = NapdU; Zorbax bead partitioning, SB18, 5 mM MgCl2, 37 C; printed sequence identical to _21 to _25, length unclear

Sequence | Kd [nM]
ACGGTACGATTTTCAGTTGGATCCAGTACCTGG [5406-56_22] | 4.93

same assay, conditions: n (P) = NapdU; considered no binding

Sequence | Kd [nM]
ATGGCGAACTCCCTGAATGCTCTTGTCT [14125-144_33] | > 1000
ACTCCCTGAATGCTCTTGTCTTAAGTCCCCAACA [14125-144_11] | > 1000
ATGGCGAACTCCCTGAATGCTCTTGTC [14125-144_37] | > 1000
GGCGAACTCCCTGAATGCTCTTGTC [14125-144_39] | > 1000
GATGGCGAACTCCCTGAATGCTCTTGTC [14125-144_36] | > 1000
GCCTGCACGATGGCGAACTCCCTGAATGCTCTTG [14125-144_19] | > 1000
GGCGAACTCCCTGAATGCTCTTGTCT [14125-144_35] | > 1000
